Laboratory results as given in patent publication US20140128319A1.

Columns and labels:
[1] = molecular target: Type 1 IGF receptor (IGF-1R) (human) (UniProt P08069); experiment: competitive displacement of 125I-Tyr31-human IGF-I; human IGF-1R, Experiment 1
[2] = molecular target: Type 1 IGF receptor (IGF-1R) (human) (UniProt P08069); experiment: competitive displacement of 125I-Tyr31-human IGF-I; human IGF-1R, Experiment 2
[3] = molecular target: Type 1 IGF receptor (IGF-1R) (human) (UniProt P08069); experiment: competitive displacement of 125I-labeled IGF-I; IGF-1R (FIG. 9B)

Sequence of Type 1 IGF receptor (IGF-1R) (human) (P08069 31-1367 limits assumed): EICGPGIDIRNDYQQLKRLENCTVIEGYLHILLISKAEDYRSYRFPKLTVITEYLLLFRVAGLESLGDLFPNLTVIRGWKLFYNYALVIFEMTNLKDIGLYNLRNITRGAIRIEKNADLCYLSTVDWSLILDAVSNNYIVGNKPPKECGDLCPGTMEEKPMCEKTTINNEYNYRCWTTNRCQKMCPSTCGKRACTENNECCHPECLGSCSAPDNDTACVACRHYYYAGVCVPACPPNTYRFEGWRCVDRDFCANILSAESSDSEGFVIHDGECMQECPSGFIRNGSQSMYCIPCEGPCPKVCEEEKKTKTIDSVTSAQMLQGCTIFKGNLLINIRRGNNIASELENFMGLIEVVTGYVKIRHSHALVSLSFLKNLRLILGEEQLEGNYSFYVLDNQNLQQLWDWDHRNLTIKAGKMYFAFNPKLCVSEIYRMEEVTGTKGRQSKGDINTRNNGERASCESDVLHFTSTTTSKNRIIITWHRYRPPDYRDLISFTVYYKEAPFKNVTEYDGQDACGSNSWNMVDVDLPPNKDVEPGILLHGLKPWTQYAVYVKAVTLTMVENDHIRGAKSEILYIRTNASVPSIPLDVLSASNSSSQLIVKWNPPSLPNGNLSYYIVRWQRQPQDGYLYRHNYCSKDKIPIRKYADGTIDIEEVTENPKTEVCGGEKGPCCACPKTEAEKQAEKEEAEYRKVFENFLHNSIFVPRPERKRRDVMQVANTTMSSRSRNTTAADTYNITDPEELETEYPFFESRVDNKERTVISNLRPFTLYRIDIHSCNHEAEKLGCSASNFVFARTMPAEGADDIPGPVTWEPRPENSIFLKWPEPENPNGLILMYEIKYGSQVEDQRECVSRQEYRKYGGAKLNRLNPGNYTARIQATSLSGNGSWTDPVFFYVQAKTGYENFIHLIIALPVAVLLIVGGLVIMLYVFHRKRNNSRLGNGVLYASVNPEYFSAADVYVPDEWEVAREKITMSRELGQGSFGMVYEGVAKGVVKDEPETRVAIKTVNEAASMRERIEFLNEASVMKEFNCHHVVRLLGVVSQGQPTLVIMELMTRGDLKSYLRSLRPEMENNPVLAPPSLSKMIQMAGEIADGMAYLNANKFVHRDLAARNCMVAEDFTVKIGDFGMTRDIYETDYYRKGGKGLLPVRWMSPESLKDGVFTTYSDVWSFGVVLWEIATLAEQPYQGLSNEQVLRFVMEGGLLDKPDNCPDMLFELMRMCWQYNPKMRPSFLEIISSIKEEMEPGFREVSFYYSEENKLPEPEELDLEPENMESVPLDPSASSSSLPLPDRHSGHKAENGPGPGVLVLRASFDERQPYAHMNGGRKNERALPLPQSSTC

Substance	Kd [1]	Kd [2]	fold reduction of cross-binding relative to KP-insulin or wild-type insulin [3]
KP-insulin (ligand; other documents disagree on this pair)	12.6 nM	15.3 nM	–
4Cl-Phe^B24-KP-insulin (ligand; para-monochloro-phenylalanine (4Cl-Phe) at B24; other documents disagree on this pair)	–	–	3 fold
penta-fluoro-Phe^B24-KP-insulin (ligand; penta-fluoro-phenylalanine (F5-Phe) at B24; other documents disagree on this pair)	522 nM	–	–
